Assay results: article PMC12603107 (2025)

Target: T1, CI-M6P/IGF2R domains 11-13 (Homo sapiens, UniProt P11717)
T1 chain: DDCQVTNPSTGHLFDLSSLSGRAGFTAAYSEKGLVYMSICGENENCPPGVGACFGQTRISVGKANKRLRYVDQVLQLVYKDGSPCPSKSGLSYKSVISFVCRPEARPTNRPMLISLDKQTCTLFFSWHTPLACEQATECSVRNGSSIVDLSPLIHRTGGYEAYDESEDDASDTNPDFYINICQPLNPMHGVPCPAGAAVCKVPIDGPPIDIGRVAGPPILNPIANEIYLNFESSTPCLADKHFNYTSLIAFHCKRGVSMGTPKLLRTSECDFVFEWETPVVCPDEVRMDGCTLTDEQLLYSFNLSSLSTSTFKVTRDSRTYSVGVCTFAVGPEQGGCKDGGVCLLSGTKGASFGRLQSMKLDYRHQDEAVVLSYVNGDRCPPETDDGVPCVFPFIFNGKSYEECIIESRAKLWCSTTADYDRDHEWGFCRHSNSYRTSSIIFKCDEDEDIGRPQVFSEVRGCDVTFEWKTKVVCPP
Test: competitive ELISA (biotinylated IGF2)

- IC50: ~5 nM
B1: IGF2 peptide (des1-6) 7-67 (protein)
chain: KSMLVLLTFLAFASCCIAAYRPSETLCGGELVDTLQFVCGDRGFYFSRPASRVSRRSRGIV
